The target in the experiment is Myc-UbcM2-His6 (mouse, UniProt P52483 1-207). The experiment in a line: pull-down.

1 molecule from publication PMC2680606 (Biochemistry, 2009) can be followed below.

Chain of Myc-UbcM2-His6 (P52483 whole entry): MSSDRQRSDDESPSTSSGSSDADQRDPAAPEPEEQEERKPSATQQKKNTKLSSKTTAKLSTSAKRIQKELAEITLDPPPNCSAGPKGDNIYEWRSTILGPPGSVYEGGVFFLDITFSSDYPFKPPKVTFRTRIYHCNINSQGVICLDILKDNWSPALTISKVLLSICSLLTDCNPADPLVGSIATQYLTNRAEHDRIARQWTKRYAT

B1: ^35S-RCBTB1 fragment: BTB domain and C-terminal 87 residues (domain or fragment, human, UniProt Q8NDN9 360-531, looked up)
chain: LKKEFDSPETADLKFRIDGKYIHVHKAVLKIRCEHFRSMFQSYWNEDMKEVIEIDQFSYPVYRAFLQYLYTDTVDLPPEDAIGLLDLATSYCENRLKKLCQHIIKRGITVENAFSLFSAAVRYDAEDLEEFCFKFCINHLTEVTQTAAFWQMDGPLLKEFIAKASKCGAFKN
modifications: 35S-labelled methionine and cysteine
As for B1, the “fold binding against full-length RCBTB1” value amounted to 2 fold.
